Reference: paper PMC5159797

B1: GST-SKAP [not stated] / GFP-Kif2b [human] (parent)
chain 1: MAAPEAPPLDRVFRTTWLSTECDSHPLPPSYRKFLFETQAADLAGGTTVAAGNLLNESEKDCGQDRRAPGVQPCRLVTMTSVVKTVYSLQPPSALSGGQPADTQTRATSKSLLPVRSKEVDVSKQLHSGGPENDVTKITKLRRENGQMKATDTATRRNVRKGYKPLSKQKSEEELKDKNQLLEAVNKQLHQKLTETQGELKDLTQKVELLEKFRDNCLAILESKGLDPALGSETLASRQESTTDHMDSMLLLETLQEELKLFNETAKKQMEELQALKVKLEMKEERVRFLEQQTLCNNQVNDLTTALKEMEQLLEM
chain 2: MASQFCLPESPCLSPLKPLKPHFGDIQEGIYVAIQRSDKRIHLAVVTEINRENYWVTVEWVEKAVKKGKKIDLETILLLNPALDSAEHPMPPPPLSPLALAPSSAIRDQRTATKWVAMIPQKNQTASGDSLDVRVPSKPCLMKQKKSPCLWEIQKLQEQREKRRRLQQEIRARRALDVNTRNPNYEIMHMIEEYRRHLDSSKISVLEPPQEHRICVCVRKRPLNQRETTLKDLDIITVPSDNVVMVHESKQKVDLTRYLQNQTFCFDHAFDDKASNELVYQFTAQPLVESIFRKGMATCFAYGQTGSGKTYTMGGDFSGTAQDCSKGIYALVAQDVFLLLRNSTYEKLDLKVYGTFFEIYGGKVYDLLNWKKKLQVLEDGNQQIQVVGLQEKEVCCVEEVLNLVEIGNSCRTSRQTPVNAHSSRSHAVFQIILKSGRIMHGKFSLVDLAGNERGADTTKASRKRQLEGAEINKSLLALKECILALGQNKPHTPFRASKLTLVLRDSFIGQNSSTCMIATISPGMTSCENTLNTLRYANRVKKLNVDVRPYHRGHYPIGHEAPRMLKSHIGNSEMSLQRDEFIKIPYVQSEEQKEIEEVETLPTLLGKDTTISGKGSSQWLENIQERAGGVHHDIDFCIARSLSILEQKIDALTEIQKKLKLLLADLHVKSKVE

Variants of: B1
Test: GST pull-down, anti-GFP blot quantified
Conditions: with GFP-Kif2b [human]; GFP-Kif2b from HEK293T cell lysates; parent: 1; read off a plot

ratio to parent	Variant
0.7	chain 1 S232A S237A T294A
1.2	chain 1 S232E S237E T294E
